# Data as given in the supplement of paper PMC7125110.
# ± gives the standard error. For part of these data: Variants at the floor of the assay were thinned out.
# B1: glmS ribozyme (parent)
# chain: AUAAAAGCGCCAGAACUACAGAAAUGUAGUUGACGAGGAGGAGGUUUAUCGAAUUUUCGGCGGAUGCCUCCAAA
# Key:
# Conditions in all cases: with glucosamine-6-phosphate
# glucosamine-6-phosphate [1] = variants of: B1; assay: kcat; higher = faster cleavage; RNA array
# In short: (§1)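 E. coli RNA polymerase transcribed barcoded ribozyme variants in situ on sequenced MiSeq chips, which were tracked via a hybridised Cy3 probe at 37 °C. Tiles were imaged over ~14 h after glucosamine-6-phosphate (40 μM to 10 mM) in HEPES/KCl/Mg(OAc)2 buffer was flowed in. Normalised per-tile medians were fit to one- or two-exponential decays for kobs, and kcat and KM came from weighted Michaelis–Menten fits.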
# glucosamine-6-phosphate [2] = variants of: B1; assay: KM; higher = weaker cofactor use; RNA array
# In short: as §1
# glucosamine-6-phosphate [3] = variants of: B1; assay: self-cleavage kobs at 40 uM GlcN6P; higher = faster cleavage; RNA array
# In short: as §1
# glucosamine-6-phosphate [4] = variants of: B1; assay: self-cleavage kobs at 160 uM GlcN6P; higher = faster cleavage; RNA array
# In short: as §1
# glucosamine-6-phosphate [5] = variants of: B1; assay: self-cleavage kobs at 640 uM GlcN6P; higher = faster cleavage; RNA array
# In short: as §1
# glucosamine-6-phosphate [6] = variants of: B1; assay: self-cleavage kobs at 2500 uM GlcN6P; higher = faster cleavage; RNA array
# In short: as §1
# glucosamine-6-phosphate [7] = variants of: B1; assay: self-cleavage kobs at 10000 uM GlcN6P; higher = faster cleavage; RNA array
# In short: as §1
Variant,kcat (glucosamine-6-phosphate [1]),KM (glucosamine-6-phosphate [2]),self-cleavage kobs at 40 uM GlcN6P (glucosamine-6-phosphate [3]),self-cleavage kobs at 160 uM GlcN6P (glucosamine-6-phosphate [4]),self-cleavage kobs at 640 uM GlcN6P (glucosamine-6-phosphate [5]),self-cleavage kobs at 2500 uM GlcN6P (glucosamine-6-phosphate [6]),self-cleavage kobs at 10000 uM GlcN6P (glucosamine-6-phosphate [7])
U54A C70A,0.000115 ± 1.2e-05 s⁻¹,42.6 ± 17 µM,5.92e-05 ± 7.9e-06 s⁻¹,7.42e-05 ± 1.3e-05 s⁻¹,0.000107 ± 1.4e-05 s⁻¹,0.000122 ± 1.5e-05 s⁻¹,–
G7U C16A G37A A53U C71A,1.25e-05 ± 4.6e-06 s⁻¹,–,–,–,–,–,–
A6U C50G A52U C61G C68U,3.87e-05 ± 1.1e-05 s⁻¹,–,–,–,–,–,4.51e-05 ± 1.6e-05 s⁻¹
G13U G41A,5.17e-05 ± 3.4e-06 s⁻¹,3540 ± 600 µM,–,–,–,2.17e-05 ± 8.2e-06 s⁻¹,3.81e-05 ± 9.2e-06 s⁻¹
G63A C68U,< 1e-05 s⁻¹,–,< 1e-05 s⁻¹,–,–,–,–
G37A A52U,5.16e-05 ± 5.1e-06 s⁻¹,6790 ± 1600 µM,–,< 1e-05 s⁻¹,–,–,3.07e-05 ± 8.4e-06 s⁻¹
A12C U54G,0.0218 ± 0.01 s⁻¹,–,0.000492 ± 7.4e-05 s⁻¹,0.0011 ± 0.00016 s⁻¹,0.00452 ± 0.00083 s⁻¹,0.0102 ± 0.0016 s⁻¹,0.0271 ± 0.0095 s⁻¹
C11A,0.000291 ± 2.1e-05 s⁻¹,2280 ± 280 µM,< 1e-05 s⁻¹,2.39e-05 ± 2.4e-06 s⁻¹,6.25e-05 ± 1.7e-06 s⁻¹,0.000153 ± 3.1e-06 s⁻¹,0.000236 ± 1.4e-05 s⁻¹
U54A G59A,6.69e-05 ± 7.1e-06 s⁻¹,4220 ± 1300 µM,–,–,–,–,4.72e-05 ± 7.4e-06 s⁻¹
G13A A53G,0.00138 ± 0.00018 s⁻¹,4280 ± 820 µM,–,6.12e-05 ± 1.3e-05 s⁻¹,0.00017 ± 2e-05 s⁻¹,0.000498 ± 5.7e-05 s⁻¹,0.000981 ± 0.00011 s⁻¹
C16G C67A,0.00104 ± 0.00042 s⁻¹,–,3.35e-05 ± 7e-06 s⁻¹,–,0.000169 ± 6.1e-05 s⁻¹,0.000618 ± 0.00021 s⁻¹,0.000956 ± 0.00019 s⁻¹
C16A C50A,< 1e-05 s⁻¹,–,–,–,–,–,–
G62A U69G,3.25e-05 ± 8.9e-06 s⁻¹,–,–,–,3.57e-05 ± 1.7e-05 s⁻¹,3.47e-05 ± 1.6e-05 s⁻¹,–
A6C C68G,< 1e-05 s⁻¹,–,< 1e-05 s⁻¹,–,< 1e-05 s⁻¹,–,–
C50G C71G,0.000204 ± 3.9e-05 s⁻¹,–,0.000109 ± 9.6e-06 s⁻¹,0.000249 ± 4.4e-05 s⁻¹,0.000149 ± 2.4e-05 s⁻¹,0.000242 ± 3.1e-05 s⁻¹,–
A6G G13A,< 1e-05 s⁻¹,–,< 1e-05 s⁻¹,< 1e-05 s⁻¹,< 1e-05 s⁻¹,–,–

Variant,kcat (glucosamine-6-phosphate [1]),KM (glucosamine-6-phosphate [2]),self-cleavage kobs at 40 uM GlcN6P (glucosamine-6-phosphate [3]),self-cleavage kobs at 160 uM GlcN6P (glucosamine-6-phosphate [4]),self-cleavage kobs at 640 uM GlcN6P (glucosamine-6-phosphate [5]),self-cleavage kobs at 2500 uM GlcN6P (glucosamine-6-phosphate [6]),self-cleavage kobs at 10000 uM GlcN6P (glucosamine-6-phosphate [7])
G13C G66A,6.45e-05 ± 6.3e-06 s⁻¹,1630 ± 600 µM,–,–,–,4.1e-05 ± 1.2e-05 s⁻¹,5.46e-05 ± 1.2e-05 s⁻¹
A15G C67A C71U,0.000877 ± 0.00033 s⁻¹,–,7.86e-05 ± 1.3e-05 s⁻¹,–,0.000523 ± 0.00013 s⁻¹,0.000455 ± 0.00016 s⁻¹,0.00139 ± 0.00024 s⁻¹
A12C G43U,5.32e-05 ± 9.5e-07 s⁻¹,1200 ± 86 µM,–,–,–,3.6e-05 ± 8e-06 s⁻¹,4.74e-05 ± 9.2e-06 s⁻¹
U54G G66A,0.0134 ± 0.0022 s⁻¹,1380 ± 320 µM,0.000427 ± 4.8e-05 s⁻¹,0.00123 ± 0.00022 s⁻¹,0.00385 ± 0.00097 s⁻¹,0.00659 ± 0.0015 s⁻¹,0.0132 ± 0.0016 s⁻¹
A48U U55G,0.000482 ± 2.4e-05 s⁻¹,3300 ± 360 µM,–,–,7.42e-05 ± 2.3e-05 s⁻¹,0.000226 ± 5.6e-05 s⁻¹,0.000359 ± 4.8e-05 s⁻¹
A15U G35A,< 1e-05 s⁻¹,–,< 1e-05 s⁻¹,–,–,–,< 1e-05 s⁻¹
A12C U49G,0.000332 ± 1.7e-05 s⁻¹,1730 ± 210 µM,–,–,8.81e-05 ± 2e-05 s⁻¹,0.000216 ± 9.7e-05 s⁻¹,0.000282 ± 4e-05 s⁻¹
A15U U55G,0.00423 ± 0.0019 s⁻¹,–,0.000109 ± 1.3e-05 s⁻¹,0.000152 ± 4.6e-05 s⁻¹,0.00134 ± 0.00029 s⁻¹,0.00204 ± 0.00063 s⁻¹,0.00356 ± 0.00054 s⁻¹
G29C U65A,0.000197 ± 2.5e-05 s⁻¹,2100 ± 780 µM,–,–,3.62e-05 ± 1.2e-05 s⁻¹,0.00013 ± 1.8e-05 s⁻¹,0.000157 ± 1.5e-05 s⁻¹
U55C G66U,0.00114 ± 0.00044 s⁻¹,–,6.69e-05 ± 1.8e-05 s⁻¹,0.000202 ± 5.7e-05 s⁻¹,0.000297 ± 5.7e-05 s⁻¹,0.00105 ± 0.00021 s⁻¹,0.00102 ± 0.00022 s⁻¹
A39U G40C,0.00382 ± 0.00081 s⁻¹,1850 ± 560 µM,0.00011 ± 1.5e-05 s⁻¹,0.000253 ± 4.7e-05 s⁻¹,0.00089 ± 0.0001 s⁻¹,0.00244 ± 0.00039 s⁻¹,0.00324 ± 0.00043 s⁻¹
A52G,0.00319 ± 0.00046 s⁻¹,4410 ± 790 µM,3.36e-05 ± 1e-06 s⁻¹,0.000104 ± 3.3e-06 s⁻¹,0.000385 ± 9.1e-06 s⁻¹,0.00127 ± 5.6e-05 s⁻¹,0.0022 ± 6.2e-05 s⁻¹
A48G C67A,7.17e-05 ± 2.1e-06 s⁻¹,–,–,< 1e-05 s⁻¹,–,–,3.47e-05 ± 1.2e-05 s⁻¹
U31G G41U,0.000641 ± 0.00019 s⁻¹,–,–,6.71e-05 ± 1.8e-05 s⁻¹,0.000154 ± 6.3e-05 s⁻¹,0.000806 ± 0.00017 s⁻¹,0.000505 ± 0.0001 s⁻¹
U45G A64G,0.00935 ± 0.0026 s⁻¹,2790 ± 990 µM,0.000169 ± 2.8e-05 s⁻¹,0.000411 ± 0.00011 s⁻¹,0.00161 ± 0.0003 s⁻¹,0.00451 ± 0.00092 s⁻¹,0.00759 ± 0.002 s⁻¹
A39G A64U,0.000215 ± 3.3e-05 s⁻¹,3440 ± 950 µM,< 1e-05 s⁻¹,–,3.77e-05 ± 1.6e-05 s⁻¹,8.33e-05 ± 2.5e-05 s⁻¹,0.000168 ± 5.5e-05 s⁻¹
